A short description of the data set: soluble on expression in E. coli; label from the status in PepcDB or PDB records.
Take “MSLQENRLKYCIQRMATVFEVSLSGYYDWLKRGMSKRKQHHNRCELLVKSAHMDTQQSYGHERLHQHLTSQGHDISLYMVRQIKQEHGIYCKRHKRSKVTTDSNHNKPVYPNLLEQQFDVAAPNIAWVSDITYIWTNEGWVYLAAFKDLYSKEIVGYALNKRMTADLVCEALNNAIKYKRPARGLIVHSDRGSQYCSHQYRQIIDKYGFAGSMSRKGNCYDNAPIESFWGQLKNELIYHKVYETRDEAIKDVVRYIEIFYNRQRIQKGLGFKSPTQVFQDFYRQAAEGHHHHHH”: the “soluble on expression in E. coli” value was “not soluble”.
As for “MDVNTASQSTTDEQMMDILLVLDKEKKTISAVKGVDENGELQTVPPENNSELLKFDRHGDFFSNFFSNMMNQLKNPTRFNFFKIPKIELPKIEPIIRDNFNHPTPENEAGIERYRVTPETVKQEAKKEQQETQAQQPQQPAKEAGAMAQTPQQPDKSKYVIDPDKVDWEALKNFGLSKEQLEKAKALEPMLRGYKSPGAFTIAGNYNSAIMKLDARLSFRHDKDGNVVLAIHGIRQKPELERPFFGHEFSKEDKANLLETGNMGRIVNLKNYITGEMIPSFVSVDKVTNELVSMRASSVQIPDEIKGVKLNKEQKQALREGKGVFLENMISNRKNPFSATVQVNADKKSLEFIYPNAKQSQEQGQKQTQQNSLVTSDGVTIPKSISGIELSRQQQQDLVNDKTIFVAGLKDKRGVEYDAYIQVNHDKKKLGFYSDNPSFDRSAVKEITPASKNRTQVAVNSEGKTNEATKKVKEPLKKGQDKPTEKQKTKQDKKEKQEQTDKPKQSRGRKR”, the entry is “not soluble”.
The entry for “MSLKYVKSLFEIHPDIATKFRIKNQYLKTGYMNVLLCLIETVRRSPKEISKNDLADAYVALESLTDHGFKLDWLKKKLDQVTQKKEKEAAGETRMHEIGEELKDLKLKCSDLEAQLDKVKWKCSDLEAQLVKEKADVLAAIAPLGSSDDGVFDDFFEKQYTGFVRKYQIGASQTWFLLLNSRPKIVDFWSRANSKALLKARFLKLLAYAMCQNQKAWMSTGFMFYLPKRLLAFPKGNDTKSDHLSLYLDVAESESLPCGWRRHAQFSFTIVNHIPEKCSQRKDGEGSSFYEEIQLGHQEFLLFAIAENILASVRDARLQEGHHHHHH” is “not soluble”; for “MGSDKIHHHHHHMSNISEIVVELFKEASIYLPDDVKSKLKHAEEVECGACKDTLQAIELNNKIAETKQIPLCQDTGVPVIFLKIGTGISSERIIEIIKEIESGVKRATAEVPLRPNVVNPITRENLGTNTGMGAPFINFEFSENLNNEIEISVFPKGAGSENMSALKMLTPSEGLMGIKKFILETVANAGGKPCPPIVLGIGIGGTADISLKLAKKALLRDIGNRNPEKTIENLEKELLDSINQLGIGTMGLGGKITALDVFIEVNGCHTASLPVGICIQCWADRKAKRKIKL” it is “not soluble”; for “MLLLPSAADGRGTAITHALTSASTLCQVEPVGRWFEAFVKRRNRNASASFQELEDKKELSEESEDEELQLEEFPMLKTLDPKDWKNQDHYAVLGLGHVRYKATQRQIKAAHKAMVLKHHPDKRKAAGEPIKEGDNDYFTCITKAYEMLSDPVKRRAFNSVDPTFDNSVPSKSEAKDNFFEVFTPVFERNSRWSNKKNVPKLGDMNSSFEDVDIFYSFWYNFDSWREFSYLDEEEKEKAECRDERRWIEKQNRATRAQRKKEEMNRIRTLVDNAYSCDPRIKKFKEEEKAKKEAEKKAKAEAKRKEQEAKEKQRQAELEAARLAKEKEEEEVRQQALLAKKEKDIQKKAIKKERQKLRNSCKTWNHFSDNEAERVKMMEEVEKLCDRLELASLQCLNETLTSCTKEVGKAALEKQIEEINEQIRKEKEEAEARMRQASKNTEKSTGGGGNGSKNWSEDDLQLLIKAVNLFPAGTNSRWEVIANYMNIHSSSGVKRTAKDVIGKAKSLQKLDPHQKDDINKKAFDKFKKEHGVVPQADNATPSERFEGPYTDFTPWTTEEQKLLEQALKTYPVNTPERWEKIAEAVPGRTKKDCMKRYKELVEMVKAKKAAQEQVLNASRAKK” it is “not soluble”.
“MPVVERTTFLAGYSPQQVLDFCLEGANFPKIFPERVTPLGGLDINDLRISVGRQFSFLHWMFGVIPAKWTVVIREVGDRHFVDEMLKGPLRAFRHEHRVEAAEGGTLYTDRVTYRAIGGAPLEWLMVNAYMARIFDARHRNMLRLLSLEHHHHHH”: the “soluble on expression in E. coli” value was “soluble”.
As for “MSANQEEDKKPGDGGAHINLKVKGQDGNEVFFRIKRSTQLKKLMNAYCDRQSVDMNSIAFLFDGRRLRAEQTPDELDMEDGDEIDAMLHQTGGSGGGATA”, the entry is “soluble”; as for “MIFSDWPWRHWRQVRGETIALRLNDEQLNWRELCARVDELASGFAVQGVVEGSGVMLRAWNTPQTLLAWLALLQCGARVLPVNPQLPQPLLEELLPNLTLQFALVPDGENTFPALTSLHIQLVEGAHAATWQPTRLCSMTLTSGSTGLPKAAVHTYQAHLASAQGVLSLIPFGDHDDWLLSLPLFHVSGQGIMWRWLYAGARMTVRDKQPLEQMLAGCTHASLVPTQLWRLLVNRSSVSLKAVLLGGAAIPVELTEQAREQGIRCFCGYGLTEFASTVCAKEADGLADVGSPLPGREVKIVNNEVWLRAASMAEGYWRNGQLVSLVNDEGWYATRDRGEMHNGKLTIVGRLDNLFFSGGEGIQPEEVERVIAAHPAVLQVFIVPVADKEFGHRPVAVMEYDHESVDLSEWVKDKLARFQQPVRWLTLPPELKNGGIKISRQALKEWVQRQQ”, “soluble”.
The entry for “MGEKRKTRQAEVNIGMVGHVDHGKTTLTKALTGVWTDTHSEELRRGITIKIGFADAEIRRCSNCGRYSTSPICPYCGHETEFIRRVSFIDSPGHEALMTTMLAGASLMDGAILVIAANEPCPRPQTREHLMALQIIGQKNIIIAQNKIELVDKEKALENYRQIKEFIKGTVAENAPIIPISALHGANIDVLVKAIEEFIPTPKRDSNKPPKMLVLRSFDVNKPGTPPEKLVGGVLDGSIVQGKLKVGDEIEIRPGVPYEEHGRIKYEPITTEIVSLQAGGQFVEEAYPGGLVGIGTKLDPYLTKGDLMAGNVVGKPGKLPPVWTDLRLEVHLLERVVGTEQELNVEPIKRKEVLLLNVGTARTMGLVTALGKDEIELKLQIPVCAEPGERVAISRQIGSRWRLIGYGIIKELEHHHHHH” is “soluble”; for “MQILEPQQFATWNEPIEMLYACHSKVKRFCRQLSILPDYLEKHGYTQAVLNDVEQILSYFNRAAPLHHDDEELDFFPQLVKVAPQTQTSIDELEKQHEYLHENWNALSVQLEELISEQRQDIDKHLIERFIQGYDRHIALEEPLFEMGRECLSADILTEMGKHMSARRQVKE” it is “not soluble”.
Regarding “MGHHHHHHSHMIKRSSECNPLLQEPIASAQFGATAGTECRKSVPCGWERVVKQRLFGKTAGRFDVYFISPQGLKFRSKSSLANYLHKNGETSLKPEDFDFTVLSKRGIKSRYKDCSMAALTSHLQNQSNNSNWNLRTRSKCKKDVFMP”, the “soluble on expression in E. coli” value was “soluble”.
The entry for “MPWKCYRDYNLESQILKYRTTADVIMKSMYKLEIESLKRELAEYRRGNNGSHSDCKYYDEEAREEVS” is “not soluble”.
The entry for “MAARRAPISRRDRPAKPALSRRWIVDTAVALMRAEGLEKVTMRRLAQELDTGPASLYVYVANTAELHAAVLDALLGEVDLTGAGAEEDWREQLRAVLTSYTLVLFAHPQLARSALVARPSGENYLRLVERVLELLARSGAPGAQVAWGVDKLLQDATATAAEQATQEHDPASHEDWSATVRALRDADEATHPAIASHMPLLVAGSAHDRLRWSFDVLVNGITRTPVPGPARGAAG” is “soluble”.
The entry for “MGSDKIHHHHHHMEKEIKNIIEMRHIVKDFNGFKANNDINLTLRKGEILALLGENGAGKSTLMSILSGLLEPTSGEIYVRGEKVNISGPNVATSLGIGMVHQHFMLAQAFTVLENIILGHETTKGLALDFKTAREKILALSKQYGLAIDPDAKISDITVAQQQRVEILKVLYRGADILIFDEPTAVLTPQEITEFIKIMKNLAKEGKSIILITHKLKEIKESADRVTVIRAGKSIQTVSVADANDEQLAEMMVGHHVNFKLDKAPLNLGKNILEVKDLHVNEDRGTDAVKGLSFNIRGGEILGLAGIDGNGQDELVEAITGLRHVEGGQVVINGQDLTNKPVRQITEAGVGHIPADRQKYGLILQLPLSENIASQTYYKEPYSKHGIMNEQTIREHARELIKKFDVRTTSEQLPASDLSGGNQQKAIIARELDRDADLIIAFQPTRGLDVGAIEYIHSQLLKQRDAGKAVLLVSYELDEILQLSDRIVVLHDGAESGEVKPDQTSETELGLLMTGKNTKKEAAAND” is “not soluble”; for “MGKMAAAVGSVATLATEPGEDAFRKLFRFYRQSRPGTADLEGVIDFSAAHAARGKGPGAQKVIKSQLNVSSVSEQNAYRAGLQPVSKWQAYGLKGYPGFIFIPNPFLPGYQWHWVKQCLKLYSQKPNVCNLDKHMSKEETQDLWEQSKEFLRYKEATKRRPRSLLEKLRWVTVGYHYNWDSKKYSADHYTPFPSDLGFLSEQVAAACGFEDFRAEAGILNYYRLDSTLGIHVDRSELDHSKPLLSFSFGQSAIFLLGGLQRDEAPTAMFMHSGDIMIMSGFSRLLNHAVPRVLPNPEGEGLPHCLEAPLPAVLPRDSMVEPCSMEDWQVCASYLKTARVNMTVRQVLATDQNFPLEPIEDEKRDISTEGFCHLDDQNSEVKRARINPHS” it is “not soluble”; for “MSKKLLIKTWGCQMNEYDSSKMADLLNAANGYELTEEPEEADVLLLNTCSIREKAQEKVFHQLGRWKTLKDKKPGVVIGVGGCVATQEGDHIRERAPYVDVIFGPQTLHRLPEMIKQSQTDDAPVMDISFPEIEKFDRLPEPRAEGATAFVSILEHHHHHH” it is “not soluble”.
With “GPGSMLRRSYATLRRKASVVLKGQLNPLEALTQIQLGMTPSLPIQRGFLLEHCERQLESLGITEGKLLAMDGRLCTQLTKRIVYELYLSVPFRVFTFDMEFTGPPVFTADGPTEDITELGLYSPLLDETFSCLVRPVCGRKQGPGVEELTHITDMMLEREGIPFVEAWQQFLKFVQTPQPDEISGSEERILLLSHGGKLADVSLIKWTLEKFHMELPPSFVFGDTIHLIRDAHRRRPVTIDKHPPSWKLADLVQWLHIPPTLPAHRAGNDARMTWDALYHTLLRYGDDGMTPREQLVPRFFDAEAKQLLREHTARQAQERAALSLDGTFLLADAKQSTSAGHADSSSIGYSVYRSASDGSGKPGKSGAATDLLDLDFDDIFSEQNKVSASAPIEEFKLDDDDDLHSISAGATSFTASRTLSSTTTSRTADLSVDPAEDDNAVSDVNAASTSTVSPARAAKTATSGGRKGKASGSSRSKEAVEKRNKRRVSAGDDDGGETSDPPAAATRAVFLV”, the “soluble on expression in E. coli” value was “soluble”.
As for “TIEIYKNKIPDGKNAGKDAILIKDNNLIKQLEDAAKKNGAESNQKQGGESNVQKEQIIGYTTTGNVREDGNHIFRVDKINDEQYDRKIIVGVTVETLEQSSTLQSEEAIVLAAPGKYKSTDKKKVTITQGPNIIGIHANEKENAETQKFVDW”, the entry is “soluble”; as for “MNIQHNLNLIQQKIETACKEENRNQNTVKLLAVSKTKPISAILSAYQAGQTAFGENYVQEGVEKIQYFESQGINLEWHFIGPLQSNKTRLVAEHFDWMQTLDRAKIADRLNEQRPTNKAPLNVLIQINISDEESKSGIQPEEMLTLAKHIENLPHLCLRGLMAIPAPTDNIAEQENAFRKMLELFEQLKQVLPNQQIDTLSMGMTDDMPSAIKCGSTMVRIGTAIFGARNYSTSQNK”, “not soluble”.
As for “MAITRESKNGEEFVGEVTFYEGVNMNVVVNFFTGLDHYEYAKLRFAHTAHTPPLIRASSTSASASASTSTSSSRPKKHYLEKNMEHLLKKLDILAFKQTIIESRSPTSDSIHHQDFVSNTDTAEYDDDDTKFF”, the entry is “not soluble”.

The values are drawn from the DeepSol protein solubility set.
